B1: Bad BH3 wild type, phage-displayed (peptide)
peptide: NLWAAQRYGRELRRMSDEFVDSFKKG
B2: Bak BH3 T4A, phage-displayed (peptide)
peptide: PSSAMGQVGRQLAIIGDDINRRYDSE
B3: Bak BH3 G6E, phage-displayed (peptide)
peptide: PSSTMEQVGRQLAIIGDDINRRYDSE
B4: Bak BH3 S25A, phage-displayed (peptide)
peptide: PSSTMGQVGRQLAIIGDDINRRYDAE
B5: Bid BH3 P25A, phage-displayed (peptide)
peptide: QEDIIRNIARHLAQVGDSMDRSIPAG
B6: Bak BH3 Q7A, phage-displayed (peptide)
peptide: PSSTMGAVGRQLAIIGDDINRRYDSE
B7: Bid BH3 S22A, phage-displayed (peptide)
peptide: QEDIIRNIARHLAQVGDSMDRAIPPG
B8: Bid BH3 G26E, phage-displayed (peptide)
peptide: QEDIIRNIARHLAQVGDSMDRSIPPE
B9: Bid BH3 Q1A, phage-displayed (peptide)
peptide: AEDIIRNIARHLAQVGDSMDRSIPPG
B10: Bak BH3 Q11A, phage-displayed (peptide)
peptide: PSSTMGQVGRALAIIGDDINRRYDSE
B11: Bak BH3 M5A, phage-displayed (peptide)
peptide: PSSTAGQVGRQLAIIGDDINRRYDSE
B12: Bak BH3 R10A, phage-displayed (peptide)
peptide: PSSTMGQVGAQLAIIGDDINRRYDSE
B13: Bid BH3 I4A, phage-displayed (peptide)
peptide: QEDAIRNIARHLAQVGDSMDRSIPPG
B14: Bid BH3 R10A, phage-displayed (peptide)
peptide: QEDIIRNIAAHLAQVGDSMDRSIPPG
B15: Bid BH3 H11A, phage-displayed (peptide)
peptide: QEDIIRNIARALAQVGDSMDRSIPPG
B16: Bid BH3 D20A, phage-displayed (peptide)
peptide: QEDIIRNIARHLAQVGDSMARSIPPG
B17: Bid BH3 I23A, phage-displayed (peptide)
peptide: QEDIIRNIARHLAQVGDSMDRSAPPG
B18: Bid BH3 N7A, phage-displayed (peptide)
peptide: QEDIIRAIARHLAQVGDSMDRSIPPG
B19: Bak BH3 R21A, phage-displayed (peptide)
peptide: PSSTMGQVGRQLAIIGDDINARYDSE
B20: Bak BH3 N20A, phage-displayed (peptide)
peptide: PSSTMGQVGRQLAIIGDDIARRYDSE
B21: Bid BH3 R6A, phage-displayed (peptide)
peptide: QEDIIANIARHLAQVGDSMDRSIPPG
B22: Bid BH3 E2A, phage-displayed (peptide)
peptide: QADIIRNIARHLAQVGDSMDRSIPPG
B23: Bid BH3 R21A, phage-displayed (peptide)
peptide: QEDIIRNIARHLAQVGDSMDASIPPG
B24: Bid BH3 S18A, phage-displayed (peptide)
peptide: QEDIIRNIARHLAQVGDAMDRSIPPG
B25: Bak BH3 E26A, phage-displayed (peptide)
peptide: PSSTMGQVGRQLAIIGDDINRRYDSA
B26: Bak BH3 wild type, phage-displayed (peptide)
peptide: PSSTMGQVGRQLAIIGDDINRRYDSE
B27: Bak BH3 D18A, phage-displayed (peptide)
peptide: PSSTMGQVGRQLAIIGDAINRRYDSE
B28: Bak BH3 S2A, phage-displayed (peptide)
peptide: PASTMGQVGRQLAIIGDDINRRYDSE
B29: Bid BH3 Q14A, phage-displayed (peptide)
peptide: QEDIIRNIARHLAAVGDSMDRSIPPG
B30: Bak BH3 S3A, phage-displayed (peptide)
peptide: PSATMGQVGRQLAIIGDDINRRYDSE
B31: Bak BH3 P1A, phage-displayed (peptide)
peptide: ASSTMGQVGRQLAIIGDDINRRYDSE
B32: Bak BH3 R22A, phage-displayed (peptide)
peptide: PSSTMGQVGRQLAIIGDDINRAYDSE
B33: Bid BH3 wild type, phage-displayed (peptide)
peptide: QEDIIRNIARHLAQVGDSMDRSIPPG
B34: Bid BH3 I5A, phage-displayed (peptide)
peptide: QEDIARNIARHLAQVGDSMDRSIPPG
B35: Bid BH3 P24A, phage-displayed (peptide)
peptide: QEDIIRNIARHLAQVGDSMDRSIAPG
B36: Bid BH3 D3A, phage-displayed (peptide)
peptide: QEAIIRNIARHLAQVGDSMDRSIPPG
B37: Bak BH3 D24A, phage-displayed (peptide)
peptide: PSSTMGQVGRQLAIIGDDINRRYASE
B38: Bak BH3 I14A, phage-displayed (peptide)
peptide: PSSTMGQVGRQLAAIGDDINRRYDSE
B39: Bak BH3 Y23A, phage-displayed (peptide)
peptide: PSSTMGQVGRQLAIIGDDINRRADSE

Molecular target: Recombinant human Bcl-xL with a 25 amino acid truncation of its C-terminus (human) (UniProt Q07817)
Assay: competition phage ELISA

Sequence of Recombinant human Bcl-xL with a 25 amino acid truncation of its C-terminus (human) (Q07817 1-208): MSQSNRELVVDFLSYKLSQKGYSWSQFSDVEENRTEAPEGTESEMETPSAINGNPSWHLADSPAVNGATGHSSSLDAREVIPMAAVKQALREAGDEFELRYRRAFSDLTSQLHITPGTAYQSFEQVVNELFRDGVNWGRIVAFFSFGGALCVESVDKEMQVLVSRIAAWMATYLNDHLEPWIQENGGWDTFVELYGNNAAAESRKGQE

Binder | IC50
B1 | 1 nM

Molecular target: mouse Mcl-1 with truncations of 151 amino acid residues at its N-terminus and 23 residues at its C-terminus (mouse) (UniProt P97287)
Assay: competition phage ELISA

Sequence of mouse Mcl-1 with truncations of 151 amino acid residues at its N-terminus and 23 residues at its C-terminus (mouse) (P97287 152-308): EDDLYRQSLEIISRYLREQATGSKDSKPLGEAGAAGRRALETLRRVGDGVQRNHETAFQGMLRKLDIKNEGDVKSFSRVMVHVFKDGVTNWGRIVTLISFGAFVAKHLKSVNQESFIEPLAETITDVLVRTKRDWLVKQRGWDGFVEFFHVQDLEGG

Binder | Fold/wt | IC50
B2 | 1 fold | 14 nM
B3 | 1 fold | 11 nM
B4 | 1 fold | 18 nM
B5 | 1 fold | 87 nM
B6 | 1 fold | 20 nM
B7 | 1 fold | 128 nM
B8 | 1 fold | 94 nM
B9 | 1 fold | 79 nM
B10 | 1 fold | 16 nM
B11 | 1 fold | 18 nM
B12 | 1 fold | 29 nM
B13 | 1 fold | 134 nM
B14 | 1 fold | 130 nM
B15 | 1 fold | 89 nM
B16 | 1 fold | 84 nM
B17 | 1 fold | 142 nM
B18 | 1 fold | 54 nM
B19 | 1 fold | 17 nM
B20 | 1 fold | 23 nM

Binder | Fold/wt | IC50
B21 | 1 fold | 88 nM
B22 | 1 fold | 140 nM
B23 | 1 fold | 132 nM
B24 | 1 fold | 104 nM
B25 | < 1 fold | 10 nM
B26 | 1 fold | 21 nM
B27 | 1 fold | 14 nM
B28 | 1 fold | 16 nM
B29 | 1 fold | 124 nM
B30 | 1 fold | 17 nM
B31 | 1 fold | 18 nM
B32 | 1 fold | 16 nM
B33 | 1 fold | 99 nM
B34 | 1 fold | 144 nM
B35 | 1 fold | 90 nM
B36 | 1 fold | 96 nM
B37 | < 1 fold | 9 nM
B38 | 1 fold | 14 nM
B39 | 6 fold | 117 nM

Molecular target: Recombinant human Bcl-xL with a 25 amino acid truncation of its C-terminus (human) (UniProt Q07817)
Assay: competition phage ELISA
Remark: another data set of the same source

Binder | Fold/wt | IC50
B2 | 1 fold | 28 nM
B3 | < 1 fold | 14 nM
B4 | 1 fold | 31 nM
B5 | 1 fold | 16 nM
B6 | 1 fold | 48 nM
B7 | 1 fold | 13 nM
B8 | 2 fold | 17 nM
B9 | 2 fold | 24 nM
B10 | 5 fold | 238 nM
B11 | < 1 fold | 15 nM
B12 | 3 fold | 163 nM
B13 | 3 fold | 31 nM
B14 | 2 fold | 26 nM
B15 | 1 fold | 9 nM
B16 | 1 fold | 13 nM
B17 | 1 fold | 15 nM
B18 | 1 fold | 10 nM
B19 | 2 fold | 87 nM
B1 | 1 fold | 2 nM
B20 | 2 fold | 111 nM

Binder | Fold/wt | IC50
B21 | 3 fold | 31 nM
B22 | 1 fold | 12 nM
B23 | 3 fold | 32 nM
B24 | 1 fold | 16 nM
B25 | 1 fold | 29 nM
B26 | 1 fold | 49 nM
B27 | 1 fold | 33 nM
B28 | 1 fold | 28 nM
B29 | 1 fold | 13 nM
B30 | 1 fold | 25 nM
B31 | 1 fold | 31 nM
B32 | 1 fold | 37 nM
B33 | 1 fold | 11 nM
B34 | 2 fold | 21 nM
B35 | 1 fold | 14 nM
B36 | 1 fold | 15 nM
B37 | 1 fold | 30 nM
B38 | 1 fold | 66 nM
B39 | 1 fold | 52 nM

From patent publication US20090048164A1
